The values below come from paper PMC13627713.

This data set has as its target Smc5/6 hexamer (wild type) (Saccharomyces cerevisiae W303, UniProt Q08204;Q12749;Q07913;P38632;Q05541;P43124 1-1093;1-1114;1-336;1-267;1-303;1-402). The data set can be described thus: EMSA.

B1: DB20 20-bp DNA (dsDNA)
DNA 1: TATTTACTTTATGTTCATTT
DNA 2: AAATGAACATAAAGTAAATA
For the molecule B1, the binding result is recorded as “binds”.
